Assay results: patent publication US20220089758A1

Biological target: CD40 protein displayed on cell surface (UniProt P25942)
Assay: cell-based or functional assay

Sequence of CD40 protein displayed on cell surface (P25942 21-277 limits assumed): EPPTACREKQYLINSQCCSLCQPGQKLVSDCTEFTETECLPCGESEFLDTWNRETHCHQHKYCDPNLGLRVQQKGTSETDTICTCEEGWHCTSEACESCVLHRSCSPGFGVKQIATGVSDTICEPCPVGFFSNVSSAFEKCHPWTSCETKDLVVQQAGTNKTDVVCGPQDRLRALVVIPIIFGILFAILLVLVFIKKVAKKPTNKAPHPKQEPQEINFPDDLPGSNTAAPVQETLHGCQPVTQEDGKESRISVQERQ

EC50 in activating MoDC assessed by CD86 expression: 4.2 nM | EC50 in activating monocyte derived dendritic cell (MoDC) assessed by CD80 expression: 5 nM
Substance: CP-870893 (antibody)
